These results are taken from US20210032313A1 (Daiichi Sankyo, published 2021).

The target of test [1] is T1, human KLK5 (human, UniProt Q9Y337 67-293).
T1 construct: also called hKLK5; active KLK5; not shown: C-terminal tag with His tag, encoded by primers 3/4
T1 sequence: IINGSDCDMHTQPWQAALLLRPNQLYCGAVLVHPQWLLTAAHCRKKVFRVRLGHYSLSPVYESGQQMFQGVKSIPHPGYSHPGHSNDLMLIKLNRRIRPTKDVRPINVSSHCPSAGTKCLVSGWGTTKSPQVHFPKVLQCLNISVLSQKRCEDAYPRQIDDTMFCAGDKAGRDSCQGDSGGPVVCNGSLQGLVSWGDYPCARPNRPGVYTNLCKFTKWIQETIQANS
Nature of the test: SPR, BIAcore T200; biotinylated KLK5 captured on chip, peptide as analyte; single cycle kinetics, 1:1 model. The procedure:
In order to measure the binding affinity of the KLK5 inhibitory peptides, surface plasmon resonance analysis was conducted using BIAcore T 200 (GE healthcare). A complementary strand of DNA of a streptavidin conjugate was captured by hybridization on Sensor Chip CAP (GE healthcare) on which single-stranded DNA immobilized. Next, KLK5 biotinylated using EZ-Link NHS-PEG4-Biotin (Thermo Fisher Scientific) was captured at a flow rate of 10 μL/min to immobilize about 10 RU. Thereafter, the KLK5 inhibitory peptide, serially diluted 2-fold with HBS-EP (0.625 to 10 nM), was added thereto as an analyte at a flow rate of 30 μL/min. In the BIAcore T 200 Evaluation software (version 2.0), kon and koff were calculated by analysis using Single cycle kinetics in a simple one-to-one Langmuir binding model. The dissociation constant KD was calculated as a ratio of koff/kₒₙ. Further, multiple KLK5 inhibitory peptides were measured by regenerating Sensor Chip CAP using a Regeneration buffer attached to a Biotin CAPture Kit (GE healthcare) and repeatedly capturing biotinylated KLK5.

A further test concerns the target T2, KLK4 (human, UniProt Q9Y5K2).
T2 construct: commercial enzyme (R&D Systems, 1719-SE); 1 µg/mL in the assay; substrate Boc-Val-Pro-Arg-AMC 100 µM; also called Human KLK4; hKLK4
Nature of the test: fluorogenic peptide substrate cleavage, 1 µM inhibitor. On the procedure:
FIG. 3F includes graphs to evaluate the cross-reactivity of each inhibitory peptide with proteases, using the degradation of a peptide substrate as an index. For evaluating the Human KLK1 inhibitory activity, hKLK1 (R&D Systems, Inc., 2337-SE) with a final concentration of 0.1 μg/mL and a substrate peptide Pro-Phe-Arg-MCA (PEPTIDE […], INC., 3096-v) with a final concentration of 100 μM were used. For evaluating the Human KLK2 inhibitory activity, hKLK2 (R&D Systems, Inc., 4104-SE) with a final concentration of 2 μg/mL and a substrate peptide Pro-Phe-Arg-MCA (PEPTIDE […], INC., 3096-v) with a final concentration of 100 μM were used. For evaluating the Human KLK4 inhibitory activity, hKLK4 (R&D Systems, Inc., 1719-SE) with a final concentration of 1 μg/mL and a substrate peptide Boc-Val-Pro-Arg-AMC (R&D Systems, Inc., ES011) with a final concentration of 100 μM were used.
(§1) The specificities for other proteases were evaluated using the degradation of a substrate peptide as an index. As in the method described in (3-1), 25 μL each of a protease and a sample diluted with an assay buffer were mixed (to a final concentration of sample of 1 μM), followed by a reaction at 37° C. for 20 minutes. Thereafter, 50 μL of a substrate diluted with an assay buffer was added thereto, and the fluorescence signal was measured using Enspire (PerkinElmer). An assay buffer (50 mM Tris, 150 mM NaCl, pH 8.0) was used for the evaluation of the protease activity, and a PROTEOSAVE® SS96F black plate (Sumitomo Bakelite Co., Ltd.) was used for the reaction and the measurement. The combinations of the protease and the substrate used for the evaluation of the specificity were as follows.

In another test the target is T3, mouse KLK5 (mouse).
T3 chain: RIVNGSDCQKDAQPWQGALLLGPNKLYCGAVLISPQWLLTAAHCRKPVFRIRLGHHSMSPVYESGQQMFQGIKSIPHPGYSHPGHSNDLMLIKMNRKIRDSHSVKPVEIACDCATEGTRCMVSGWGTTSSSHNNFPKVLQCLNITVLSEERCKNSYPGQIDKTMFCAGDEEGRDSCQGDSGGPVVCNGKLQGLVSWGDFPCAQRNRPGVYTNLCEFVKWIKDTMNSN
Nature of the test: cell-based or functional assay.

A further test addresses T4, mouse KLK14 (mouse, UniProt Q8CGR5 24-250).
T4 sequence: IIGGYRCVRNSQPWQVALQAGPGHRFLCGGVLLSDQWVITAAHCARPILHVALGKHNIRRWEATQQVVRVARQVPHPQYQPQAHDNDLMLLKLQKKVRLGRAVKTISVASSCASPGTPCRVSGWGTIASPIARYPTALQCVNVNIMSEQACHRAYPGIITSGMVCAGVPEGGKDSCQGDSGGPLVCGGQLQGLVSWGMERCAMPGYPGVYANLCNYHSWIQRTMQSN
Nature of the test: cell-based or functional assay.

For another test, the target named is mouse KLK7 (mouse, UniProt Q91VE3 26-249). Nature of the test: cell-based or functional assay.
In test [2] the target is T1, human KLK5. Nature of the test: cell-based or functional assay.
In another test the target is T5, human KLK14 (human, UniProt Q9P0G3 25-251).
T5 sequence: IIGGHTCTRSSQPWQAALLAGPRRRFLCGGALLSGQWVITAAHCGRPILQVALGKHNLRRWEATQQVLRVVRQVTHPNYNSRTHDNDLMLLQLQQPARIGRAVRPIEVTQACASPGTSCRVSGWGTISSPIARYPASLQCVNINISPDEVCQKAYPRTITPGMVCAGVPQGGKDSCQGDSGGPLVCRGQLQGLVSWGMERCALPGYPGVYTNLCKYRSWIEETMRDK
Nature of the test: cell-based or functional assay.

In another test the target is human KLK7 (human, UniProt P49862 30-253). Nature of the test: cell-based or functional assay.
Another test deals with T6, KLK12 (human, UniProt Q9UKR0).
T6 construct: commercial enzyme (R&D Systems, 3095-SE); 0.1 µg/mL in the assay; substrate Boc-Val-Pro-Arg-AMC 100 µM; also called Human KLK12; hKLK12
T6 sequence (protease, looked up): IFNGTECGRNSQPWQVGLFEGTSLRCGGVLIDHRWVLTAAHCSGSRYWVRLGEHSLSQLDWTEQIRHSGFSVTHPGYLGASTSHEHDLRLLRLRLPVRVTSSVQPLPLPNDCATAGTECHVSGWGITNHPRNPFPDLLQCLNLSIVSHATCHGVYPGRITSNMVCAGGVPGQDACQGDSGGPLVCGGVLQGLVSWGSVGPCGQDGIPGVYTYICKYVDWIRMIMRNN
Nature of the test: fluorogenic peptide substrate cleavage, 1 µM inhibitor. On the procedure: FIG. 3G includes graphs to evaluate the cross-reactivity of each inhibitory peptide with proteases, using the degradation of a peptide substrate as an index. For evaluating the Human KLK7 inhibitory activity, hKLK7 with a final concentration of 1 μg/mL and a substrate peptide Mca-Arg-Pro-Lys-Pro-Val-Glu-Nval-Trp-Arg-Lys (Dnp)-NH₂ (R&D Systems, Inc., ES002) with a final concentration of 20 μM were used. For evaluating the Human KLK8 inhibitory activity, hKLK8 (UniProt: 060259, prepared by the inventors) with a final concentration of 5 nM and a substrate peptide Boc-Val-Pro-Arg-AMC (R&D Systems, Inc., ES011) with a final concentration of 100 μM were used. For evaluating the Human KLK12 inhibitory activity, hKLK12 (R&D Systems, Inc., 3095-SE) with a final concentration of 0.1 μg/mL and a substrate peptide Boc-Val-Pro-Arg-AMC (R&D Systems, Inc., ES011) with a final concentration of 100 μM were used.
as §1

T2 sequence (Q9Y5K2 31-254 limits assumed): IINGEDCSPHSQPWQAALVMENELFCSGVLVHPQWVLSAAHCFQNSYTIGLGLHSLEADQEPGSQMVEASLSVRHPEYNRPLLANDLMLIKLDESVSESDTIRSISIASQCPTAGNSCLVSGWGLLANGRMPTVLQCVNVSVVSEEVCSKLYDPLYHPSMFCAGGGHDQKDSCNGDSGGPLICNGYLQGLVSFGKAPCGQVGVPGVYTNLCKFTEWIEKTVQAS
Chain of mouse KLK7 (Q91VE3 26-249): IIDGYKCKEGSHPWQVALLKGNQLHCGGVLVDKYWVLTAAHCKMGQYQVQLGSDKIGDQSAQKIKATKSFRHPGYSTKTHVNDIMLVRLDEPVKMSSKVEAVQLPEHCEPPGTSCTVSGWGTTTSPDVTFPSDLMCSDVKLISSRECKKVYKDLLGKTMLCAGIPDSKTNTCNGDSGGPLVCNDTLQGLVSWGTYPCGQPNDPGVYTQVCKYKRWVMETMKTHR
Chain of human KLK7 (P49862 30-253): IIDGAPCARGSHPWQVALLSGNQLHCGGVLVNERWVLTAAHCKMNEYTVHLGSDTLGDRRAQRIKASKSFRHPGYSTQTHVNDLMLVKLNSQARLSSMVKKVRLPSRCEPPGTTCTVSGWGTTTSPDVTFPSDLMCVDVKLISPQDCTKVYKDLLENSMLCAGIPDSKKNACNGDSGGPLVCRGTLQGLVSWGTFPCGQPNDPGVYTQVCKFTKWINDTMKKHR

B1: KLK5 inhibitory peptide K51090 (peptide)
chain: GPQFGLFSKYRTPNCDEIGKYGCGRSYDPVCGSDMSTYANECTLCMKIREGGHNIKIIRNGPCGG
notes: SPINK2 mutant peptide made in E. coli
Turning to B1, in the test with human KLK5 [1], the Kd (as a rule, the concentration at which binding is half-saturated) amounted to 0.027 nM; the koff (in general, a measure of how fast the partners let go of each other) was 5.7e-05 s⁻¹; the kon – broadly, the second-order rate constant of association – was 2.1e+06 M⁻¹ s⁻¹. The binding result in the test with KLK4 was “binds”. The “IC50(nM) for mKLK5” value with mouse KLK5 was found to be 2 nM. For the same molecule, in the test with mouse KLK14, the “IC50(nM) for mKLK14” value is > 1000 nM. In addition, in the test with mouse KLK7, the “IC50(nM) for mKLK7” value came out at 658 nM. Further, the “IC50(nM) for hKLK5” value with human KLK5 [2] is 4.5 nM. Further, in the test with human KLK14, the “IC50(nM) for hKLK14” value is > 1000 nM. In the test with human KLK7, the “IC50(nM) for hKLK7” value was > 1000 nM.

B2: KLK5 inhibitory peptide K50098 (peptide)
chain: GPQFGLFSKYRTPNCTSQTLGSCSREYDPVCGSDMSTYANECTLCMKIREGGHNIKIIRNGPCGG
notes: as for B1
For B2, in the test with human KLK5 [1], the Kd turned out to be 0.018 nM, the koff came out at 1.8e-05 s⁻¹ and the kon came to 1e+06 M⁻¹ s⁻¹. In addition, the binding result with KLK4 is on record as “binds”. Also, the “IC50(nM) for mKLK5” value with mouse KLK5 worked out at 14 nM. Further, the “IC50(nM) for mKLK14” value in the test with mouse KLK14 is 547 nM. Moreover, in the test with mouse KLK7, the “IC50(nM) for mKLK7” value is > 1000 nM. For the same molecule, the binding result in the test with KLK12 is recorded as “binds”. Also, in the test with human KLK5 [2], the “IC50(nM) for hKLK5” value was 8.3 nM. Moreover, in the test with human KLK14, the “IC50(nM) for hKLK14” value is 268 nM.

B3: KLK5 inhibitory peptide K50016 (peptide)
chain: GPQFGLFSKYRTPNCSQWQYSSCDRVYDPVCGSDMSTYANECTLCMKIREGGHNIKIIRNGPCGG
notes: as for B1
In the test with human KLK5 [1], B3 returned a Kd of 0.042 nM, a koff of 0.00029 s⁻¹ and a kon of 7e+06 M⁻¹ s⁻¹. In addition, the binding result in the test with KLK4 is “binds”. For the same molecule, in the test with mouse KLK5, the “IC50(nM) for mKLK5” value was determined as 15 nM. The “IC50(nM) for mKLK14” value in the test with mouse KLK14 was > 1000 nM. Further, in the test with mouse KLK7, the “IC50(nM) for mKLK7” value was > 1000 nM. Also, in the test with human KLK5 [2], the “IC50(nM) for hKLK5” value worked out at 6.9 nM.

B4: KLK5 inhibitory peptide K50032 (peptide)
chain: GPQFGLFSKYRTPNCLNWTDHQCERDYDPVCGSDMSTYANECTLCMKIREGGHNIKIIRNGPCGG
notes: as for B1
In the test with human KLK5 [1], B4 showed a Kd of 0.13 nM, a koff of 0.00027 s⁻¹ and a kon of 2e+06 M⁻¹ s⁻¹. For the same molecule, the “IC50(nM) for mKLK5” value with mouse KLK5 amounted to 127 nM. Further, in the test with mouse KLK14, the “IC50(nM) for mKLK14” value was > 1000 nM. The “IC50(nM) for mKLK7” value with mouse KLK7 is > 1000 nM. Besides, the binding result with KLK12 is on record as “binds”. Further, the “IC50(nM) for hKLK5” value with human KLK5 [2] came to 7.1 nM.

B5: KLK5 inhibitory peptide K51072 (peptide)
chain: GPQFGLFSKYRTPNCQEDMTEYCARDFDPVCGSDMSTYANECTLCMKIREGGHNIKIIRNGPCGG
notes: as for B1
In the test with human KLK5 [1], B5 yielded a Kd of 0.026 nM, a koff of 2.2e-05 s⁻¹ and a kon of 840000 M⁻¹ s⁻¹. Besides, the binding result in the test with KLK4 is “binds”. For the same molecule, the “IC50(nM) for mKLK5” value with mouse KLK5 amounted to 2 nM. Besides, the “IC50(nM) for mKLK14” value with mouse KLK14 is > 1000 nM. The “IC50(nM) for mKLK7” value in the test with mouse KLK7 was 512 nM. For the same molecule, the binding result in the test with KLK12 is given as “binds”. Besides, the “IC50(nM) for hKLK5” value in the test with human KLK5 [2] came to 7 nM. Besides, the “IC50(nM) for hKLK14” value in the test with human KLK14 was 434 nM.

B6: KLK5/KLK7 inhibitory peptide K51028 (peptide)
chain: GPQFGLFSKYRTPNCYQYRSKGCTHEYDPVCGSDMSTYANECTLCMKIREGGHNIKIIRNGPCGG
notes: as for B1
In the test with human KLK5 [1], B6 came in with a Kd of 0.014 nM, a koff of 2e-05 s⁻¹ and a kon of 1.5e+06 M⁻¹ s⁻¹. Also, the “IC50(nM) for mKLK5” value with mouse KLK5 is < 0.5 nM. In the test with mouse KLK14, the “IC50(nM) for mKLK14” value is > 1000 nM. Also, the “IC50(nM) for mKLK7” value with mouse KLK7 is 77 nM. Besides, the “IC50(nM) for hKLK5” value in the test with human KLK5 [2] came to 6.1 nM. The “IC50(nM) for hKLK7” value with human KLK7 turned out to be 249 nM.

B7: KLK5 inhibitory peptide K50055 (peptide)
chain: GPQFGLFSKYRTPNCANTMKQDCTREYDPVCGSDMSTYANECTLCMKIREGGHNIKIIRNGPCGG
notes: as for B1
Consider B7, for which, in the test with human KLK5 [1], the Kd came to 0.019 nM, the koff amounted to 1.8e-05 s⁻¹ and the kon was 980000 M⁻¹ s⁻¹. Moreover, the binding result in the test with KLK4 is listed as “binds”. The “IC50(nM) for mKLK5” value with mouse KLK5 is < 0.5 nM. Moreover, in the test with mouse KLK14, the “IC50(nM) for mKLK14” value was > 1000 nM. The “IC50(nM) for mKLK7” value with mouse KLK7 is > 1000 nM. The binding result with KLK12 was “binds”. The “IC50(nM) for hKLK5” value with human KLK5 [2] is 6.7 nM. Also, the “IC50(nM) for hKLK14” value in the test with human KLK14 is > 1000 nM.
